The source of these data is patent publication US20240132615A1 (ICHNOS SCIENCES, published 2024).

The labels stand for the following.
B1: Anti-CD3-UCP07-E2 IgG1LALA (antibody, V domains shown)
VH: EVQLLESGGGLVQPGGSLRLSCAASGFPFSNYAMSWVRQAPGKGLEWVSAISRKGGFTEYADSVKGRFTISRDNSKNTLYLQMNSLRAEDTAVYYCARASYLGGFAYWGQGTLVTVSS
VL: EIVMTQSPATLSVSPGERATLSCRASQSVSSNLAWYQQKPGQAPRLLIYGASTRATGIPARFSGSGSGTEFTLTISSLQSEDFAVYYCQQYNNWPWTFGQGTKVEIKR
notes: IgG1 LALA
B2: Anti-CD3-UCP03-A3 IgG1LALA (antibody, V domains shown)
VH: EVQLLESGGGLVQPGGSLRLSCAASGFTFSSNAMSWVRQAPGKGLEWVSAVGKYGGATSYADSVKGRFTISRDNSKNTLYLQMNSLRAEDTAVYYCARGGPGYSTFYEFDNWGQGTLVTVSS
VL: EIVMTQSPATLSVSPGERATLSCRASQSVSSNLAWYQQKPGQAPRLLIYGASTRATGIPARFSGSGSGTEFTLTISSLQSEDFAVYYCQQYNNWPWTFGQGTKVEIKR
notes: IgG1 LALA
B3: Anti-CD3-UCP03-B1 IgG1LALA (antibody, V domains shown)
VH: EVQLLESGGGLVQPGGSLRLSCAASGFTFSRYAMTWVRQAPGKGLEWVSGISKYGGATAYADSVKGRFTISRDNSKNTLYLQMNSLRAEDTAVYYCARGGTRFDIWGQGTLVTVSS
VL: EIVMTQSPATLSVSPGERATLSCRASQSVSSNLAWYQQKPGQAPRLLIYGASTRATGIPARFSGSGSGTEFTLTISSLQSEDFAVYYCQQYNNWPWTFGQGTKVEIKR
notes: IgG1 LALA
B4: Anti-CD3-UCP07-A3 IgG1LALA (antibody, V domains shown)
VH: EVQLLESGGGLVQPGGSLRLSCAASGVSFREYVMAWVRQAPGKGLEWVSVISQYGGNTYYADSVKGRFTISRDNSKNTLYLQMNSLRAEDTAVYYCARSGGSVPFDYWGQGTLVTVSS
VL: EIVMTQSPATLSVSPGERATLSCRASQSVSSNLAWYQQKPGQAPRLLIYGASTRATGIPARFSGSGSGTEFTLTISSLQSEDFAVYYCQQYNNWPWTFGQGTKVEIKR
notes: IgG1 LALA
B5: Anti-CD3-UCP07-A1 IgG1LALA (antibody, V domains shown)
VH: EVQLVESGGGLVKPGGSLRLSCAASGFTFSDYAVNWVRQAPGKGLEWVGRIKSKNEGGTGYAAPVKGRFTISRDDSKNTLYLQMNSLKTEDTAVYYCAREPSYYRDGAADYWGQGTLVTVSS
VL: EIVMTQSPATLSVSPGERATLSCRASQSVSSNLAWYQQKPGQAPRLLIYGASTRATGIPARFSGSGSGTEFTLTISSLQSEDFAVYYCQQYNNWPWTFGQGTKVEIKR
notes: IgG1 LALA
B6: Anti-CD3-UCP03-E2 IgG1LALA (antibody, V domains shown)
VH: EVQLVESGGGLIQPGGSLRLSCAASGISVGNNYMSWVRQAPGKGLEWVSVIYPNGRIKYADSVKGRFTISRDNSKNTLYLQMNSLRAEDTAVYYCARGVIDGSYLDFAYWGQGTLVTVSS
VL: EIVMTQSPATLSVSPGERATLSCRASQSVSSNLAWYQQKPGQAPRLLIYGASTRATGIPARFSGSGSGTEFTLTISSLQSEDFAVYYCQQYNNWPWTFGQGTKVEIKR
notes: IgG1 LALA
B7: Anti-CD3-UCP05-A1 IgG1LALA (antibody, V domains shown)
VH: EVQLLESGGGLVQPGGSLRLSCAASGFTFSTYAMSWVRQAPGKGLELVSAISRHGGFSRYADSVKGRFTISRDNSKNTLYLQMNSLRAEDTAVYYCARASSYGYDPWGQGTLVTVSS
VL: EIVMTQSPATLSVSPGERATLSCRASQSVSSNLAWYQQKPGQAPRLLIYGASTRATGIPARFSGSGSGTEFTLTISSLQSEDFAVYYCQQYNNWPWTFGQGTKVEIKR
notes: IgG1 LALA
B8: Anti-CD3-UCP05-H1 IgG1LALA (antibody, V domains shown)
VH: EVQLLESGGGLVQPGGSLRLSCAASGFAFSNSAMSWVRQAPGKGLELVSAISTKGGKTLYADSVKGRFTISRDNSKNTLYLQMNSLRAEDTAVYYCARSSPYGFDYWGQGTLVTVSS
VL: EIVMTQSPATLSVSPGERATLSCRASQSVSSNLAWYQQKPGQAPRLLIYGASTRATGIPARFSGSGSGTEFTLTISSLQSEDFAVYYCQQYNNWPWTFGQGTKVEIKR
notes: IgG1 LALA
B9: Anti-CD3-UCP05-C1 IgG1LALA (antibody, V domains shown)
VH: QVQLVQSGAEVKKPGSSVKVSCKASGGRFSRQALTWVRQAPGQGLEWMGGIIPDHGRPIYAQKFQGRVTITADESTSTAYMELSSLRSEDTAVYYCARGKGGSVAGWKFDVWGQGTLVTVSS
VL: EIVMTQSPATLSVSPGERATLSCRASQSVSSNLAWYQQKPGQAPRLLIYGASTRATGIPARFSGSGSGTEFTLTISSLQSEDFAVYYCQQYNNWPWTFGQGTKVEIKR
notes: IgG1 LALA
B10: Anti-CD3-UCP05-F1 IgG1LALA (antibody, V domains shown)
VH: EVQLLESGGGLVQPGGSLRLSCAASGFTFRHYAMTWVRQAPGKGLEWVSAITQRGGYTYYADSVKGRFTISRDNSKNTLYLQMNSLRAEDTAVYYCARAGPSGGGFDYWGQGTLVTVSS
VL: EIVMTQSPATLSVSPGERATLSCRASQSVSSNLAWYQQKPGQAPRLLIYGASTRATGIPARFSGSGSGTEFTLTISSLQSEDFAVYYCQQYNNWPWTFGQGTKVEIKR
notes: IgG1 LALA
B11: Anti-CD3-UCP05-A2 IgG1LALA (antibody, V domains shown)
VH: EVQLLESGGGLVQPGGSLRLSCAASGFSFKIYAMGWVRQAPGKGLEWVSAITQQGGATVYADSVKGRFTISRDNSKNTLYLQMNSLRAEDTAVYYCARPGDLGGGFDIWGQGTLVTVSS
VL: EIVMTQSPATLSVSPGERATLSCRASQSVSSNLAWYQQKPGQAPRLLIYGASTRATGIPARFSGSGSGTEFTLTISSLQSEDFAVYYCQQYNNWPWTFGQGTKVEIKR
notes: IgG1 LALA
B12: Anti-CD3-UCP07-D1 IgG1LALA (antibody, V domains shown)
VH: EVQLLESGGGLVQPGGSLRLSCAASGFNFNINVMSWVRQAPGKGLEWVSAISQSGGYTLYADSVKGRFTISRDNSKNTLYLQMNSLRAEDTAVYYCARASPYGGGFDYWGQGTLVTVSS
VL: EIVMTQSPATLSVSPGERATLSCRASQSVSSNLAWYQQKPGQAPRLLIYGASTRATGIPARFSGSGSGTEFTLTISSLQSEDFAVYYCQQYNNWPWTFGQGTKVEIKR
notes: IgG1 LALA
B13: Anti-CD3-UCP06-A1 IgG1LALA (antibody, V domains shown)
VH: QVQLVQSGAEVKKPGSSVKVSCKASGGHFRGYGISWVRQAPGQGLEWMGEIIPLRGFTIYAQKFQGRVTITADESTSTAYMELSSLRSEDTAVYYCARGSYVDSSYYYYDGFDVWGQGTLVTVSS
VL: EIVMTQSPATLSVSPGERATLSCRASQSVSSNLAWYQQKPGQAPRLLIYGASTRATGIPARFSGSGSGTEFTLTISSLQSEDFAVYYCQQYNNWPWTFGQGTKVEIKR
notes: IgG1 LALA
B14: Anti-CD3-UCP05-G2 IgG1LALA (antibody, V domains shown)
VH: QVQLVQSGAEVKKPGSSVKVSCKASGGVFNFYAISWVRQAPGQGLEWMGGITPDGGFVKYAQKFQGRVTITADESTSTAYMELSSLRSEDTAVYYCARSPVSLYYGKYYVYYGAFDVWGQGTLVTVSS
VL: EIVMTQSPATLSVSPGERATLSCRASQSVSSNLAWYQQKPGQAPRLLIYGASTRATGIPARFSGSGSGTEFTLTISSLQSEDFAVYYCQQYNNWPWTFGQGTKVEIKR
notes: IgG1 LALA
B15: Anti-CD3-UCP03-C1 IgG1LALA (antibody, V domains shown)
VH: EVQLLESGGGLVQPGGSLRLSCAASGFTFSQYAMSWVRQAPGKGLEWVSVISPSGATAVYADSVKGRFTISRDNSKNTLYLQMNSLRAEDTAVYYCARGQYDDLDKSGYEFDHWGQGTLVTVSS
VL: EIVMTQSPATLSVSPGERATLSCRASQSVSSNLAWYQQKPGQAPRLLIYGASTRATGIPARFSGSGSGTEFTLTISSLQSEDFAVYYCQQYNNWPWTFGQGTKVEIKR
notes: IgG1 LALA
B16: Anti-CD3-UCP03-G2 IgG1LALA (antibody, V domains shown)
VH: QVQLVQSGAEVKKPGSSVKVSCKASGYGFNLYAINWVRQAPGQGLEWMGRIIPEYGHTRYAQKFQGRVTITADESTSTAYMELSSLRSEDTAVYYCARDRYSTYSGGMDYWGQGTLVTVSS
VL: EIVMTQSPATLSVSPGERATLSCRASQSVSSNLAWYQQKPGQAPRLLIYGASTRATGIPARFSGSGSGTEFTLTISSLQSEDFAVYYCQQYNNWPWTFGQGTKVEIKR
notes: IgG1 LALA
B17: Anti-CD3-UCP05-D2 IgG1LALA (antibody, V domains shown)
VH: EVQLLESGGGLVQPGGSLRLSCAASGFTFNIYALGWVRQAPGKGLEWVSAISQNGGYTLYADSVKGRFTISRDNSKNTLYLQMNSLRAEDTAVYYCARLRGGSGMDVWGQGTLVTVSS
VL: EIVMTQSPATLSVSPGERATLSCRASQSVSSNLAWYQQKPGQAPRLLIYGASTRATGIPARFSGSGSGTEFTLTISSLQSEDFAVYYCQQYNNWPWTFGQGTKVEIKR
notes: IgG1 LALA
B18: Anti-CD3-UCP03-H2 IgG1LALA (antibody, V domains shown)
VH: EVQLVESGGGLIQPGGSLRLSCAASGFTVRDSYMHWVRQAPGKGLEWVSIIYYTGKTHYADSVKGRFTISRDNSKNTLYLQMNSLRAEDTAVYYCARSQYGYFDYWGQGTLVTVSS
VL: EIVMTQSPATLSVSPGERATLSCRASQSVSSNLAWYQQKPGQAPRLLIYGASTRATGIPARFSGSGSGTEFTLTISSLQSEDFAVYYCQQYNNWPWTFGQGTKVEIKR
notes: IgG1 LALA
B19: Anti-CD3-UCP03-F2 IgG1LALA (antibody, V domains shown)
VH: EVQLLESGGGLVQPGGSLRLSCAASGFAFSHYAMTWVRQAPGKGLELVSAISQHGGYTAYADSVKGRFTISRDNSKNTLYLQMNSLRAEDTAVYYCARGHPVHAFDFWGQGTLVTVSS
VL: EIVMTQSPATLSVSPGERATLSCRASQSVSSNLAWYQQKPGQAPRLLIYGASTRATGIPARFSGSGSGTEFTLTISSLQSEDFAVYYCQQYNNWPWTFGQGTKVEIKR
notes: IgG1 LALA
B20: Anti-CD3-UCP02-A3 IgG1LALA (antibody, V domains shown)
VH: EVQLVESGGGLIQPGGSLRLSCAASGFTFRRYYMTWVRQAPGKGLEWVSVIFPQGGTSYADSVKGRFTISRDNSKNTLYLQMNSLRAEDTAVYYCARVHDVLDDVEWFDHWGQGTLVTVSS
VL: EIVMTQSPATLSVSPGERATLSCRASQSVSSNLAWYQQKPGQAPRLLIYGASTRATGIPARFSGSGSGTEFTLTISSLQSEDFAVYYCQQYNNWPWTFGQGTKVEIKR
notes: IgG1 LALA
B21: Anti-CD3-UCP07-F2 IgG1LALA (antibody, V domains shown)
VH: QVQLVQSGAEVKKPGSSVKVSCKASGGKFNKYVIGWVRQAPGQGLEWMGGVIPLKGQSKYAQKFQGRVTITADESTSTAYMELSSLRSEDTAVYYCARGRYYGDYSWKFDYWGQGTLVTVSS
VL: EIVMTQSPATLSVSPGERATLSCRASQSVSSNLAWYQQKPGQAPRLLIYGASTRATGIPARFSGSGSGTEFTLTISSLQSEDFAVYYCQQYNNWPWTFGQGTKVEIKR
notes: IgG1 LALA
B22: Anti-CD3-UCP07-C3 IgG1LALA (antibody, V domains shown)
VH: QVQLVQSGAEVKKPGSSVKVSCKASGGSFSRYAIGWVRQAPGQGLEWMGGIIPDVGIAFYAQKFQGRVTITADESTSTAYMELSSLRSEDTAVYYCAREYHYVGAFDIWGQGTLVTVSS
VL: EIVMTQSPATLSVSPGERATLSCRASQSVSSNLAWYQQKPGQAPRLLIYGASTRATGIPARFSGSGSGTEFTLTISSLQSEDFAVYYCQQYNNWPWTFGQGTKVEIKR
notes: IgG1 LALA
B23: Anti-CD3-UCP07-B3 IgG1LALA (antibody, V domains shown)
VH: EVQLVESGGGLVKPGGSLRLSCAASGFDFNAAWMTWVRQAPGKGLEWVGRIKSEKNGGKSVYAAPVKGRFTISRDDSKNTLYLQMNSLKTEDTAVYYCARGGRLSSYFDPWGQGTLVTVSS
VL: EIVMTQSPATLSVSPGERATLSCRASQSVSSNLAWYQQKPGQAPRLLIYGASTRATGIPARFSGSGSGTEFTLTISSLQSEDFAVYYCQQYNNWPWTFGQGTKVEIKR
notes: IgG1 LALA
B24: Anti-CD3-UCP02-D2 IgG1LALA (antibody, V domains shown)
VH: EVQLVESGGGLVKPGGSLRLSCAASGFTFNKAWMGWVRQAPGKGLEWVGRIKSVTDGGITVYAAPVKGRFTISRDDSKNTLYLQMNSLKTEDTAVYYCARVTARYYYFDNWGQGTLVTVSS
VL: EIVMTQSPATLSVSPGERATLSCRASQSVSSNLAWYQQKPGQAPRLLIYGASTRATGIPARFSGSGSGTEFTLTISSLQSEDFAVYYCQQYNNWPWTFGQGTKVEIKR
notes: IgG1 LALA
B25: Anti-CD3-UCP05-H2 IgG1LALA (antibody, V domains shown)
VH: QVQLVQSGAEVKKPGSSVKVSCKASGGGFSHYALNWVRQAPGQGLEWMGGIIPLTGKTAYAQKFQGRVTITADESTSTAYMELSSLRSEDTAVYYCARKISSARDYWGQGTLVTVSS
VL: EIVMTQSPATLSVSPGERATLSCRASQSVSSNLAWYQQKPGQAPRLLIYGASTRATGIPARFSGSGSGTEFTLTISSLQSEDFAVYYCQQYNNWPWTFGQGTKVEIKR
notes: IgG1 LALA
B26: Anti-CD3-UCP07-E1 IgG1LALA (antibody, V domains shown)
VH: EVQLLESGGGLVQPGGSLRLSCAASGFTFSRNAMNWVRQAPGKGLEWVSSISRIGGFTIYADSVKGRFTISRDNSKNTLYLQMNSLRAEDTAVYYCARVGSGGKAFDVWGQGTLVTVSS
VL: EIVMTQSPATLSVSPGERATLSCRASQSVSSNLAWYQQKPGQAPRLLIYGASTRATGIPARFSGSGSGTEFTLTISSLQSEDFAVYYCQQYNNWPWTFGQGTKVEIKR
notes: IgG1 LALA
B27: Anti-CD3-UCP03-F1 IgG1LALA (antibody, V domains shown)
VH: EVQLLESGGGLVQPGGSLRLSCAASGFPFSHHVMTWVRQAPGKGLEWVSAITQRGEYTLYADSVKGRFTISRDNSKNTLYLQMNSLRAEDTAVYYCARGPVPGGDHAFDYWGQGTLVTVSS
VL: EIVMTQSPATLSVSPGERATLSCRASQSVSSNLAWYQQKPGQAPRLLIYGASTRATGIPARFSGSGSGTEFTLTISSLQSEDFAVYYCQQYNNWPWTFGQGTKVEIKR
notes: IgG1 LALA
B28: Anti-CD3-UCP03-C5 IgG1LALA (antibody, V domains shown)
VH: EVQLVESGGGLIQPGGSLRLSCAASGFTVSDNDMSWVRQAPGKGLEWVSLIYSNGGTHYADSVKGRFTISRDNSKNTLYLQMNSLRAEDTAVYYCARWGISLGEPYFDYWGQGTLVTVSS
VL: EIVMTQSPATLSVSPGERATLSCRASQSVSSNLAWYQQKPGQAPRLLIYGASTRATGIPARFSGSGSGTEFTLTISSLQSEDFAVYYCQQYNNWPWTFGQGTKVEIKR
notes: IgG1 LALA
B29: Anti-CD3-UCP02-B2 IgG1LALA (antibody, V domains shown)
VH: EVQLLESGGGLVQPGGSLRLSCAASGFTFSHYVLNWVRQAPGKGLEWVSGISLTGIATIYADSVKGRFTISRDNSKNTLYLQMNSLRAEDTAVYYCARGDPTSAFDVWGQGTLVTVSS
VL: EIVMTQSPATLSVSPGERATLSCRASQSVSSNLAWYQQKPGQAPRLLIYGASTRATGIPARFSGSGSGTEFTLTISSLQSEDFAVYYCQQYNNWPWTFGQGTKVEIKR
notes: IgG1 LALA

T1 sequence (P07766 23-207): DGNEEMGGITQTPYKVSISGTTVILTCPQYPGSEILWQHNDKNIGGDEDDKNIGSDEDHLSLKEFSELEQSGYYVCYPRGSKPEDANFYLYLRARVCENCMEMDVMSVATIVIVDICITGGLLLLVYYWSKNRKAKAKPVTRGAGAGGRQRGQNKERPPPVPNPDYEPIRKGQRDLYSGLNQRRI

The experiment has as its target T1, human CD3 on cells (HPB-ALL cells, primary human T cells) (human, UniProt P07766 23-207).
T1 construct: whole, on cells; only the epsilon chain is written
Put plainly: flow cytometry, HPB-ALL WT.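 Note: binding read by flow cytometry as PE geometric mean fluorescence intensity on live single cells, dead cells excluded with SYTOX Green, only samples with at least 200 gated cells.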
B1: the binding result is “no binding (tested: 800 nM)”.

Regarding B2, the binding result is given as “no binding (tested: 800 nM)”.

Regarding B3, the binding result was “no binding (tested: 800 nM)”.

On to B4, for which the binding result is “no binding (tested: 800 nM)”.

Take B5: the binding result is “no binding (tested: 800 nM)”.

On to B6, for which the binding result is “no binding (tested: 800 nM)”.

In the case of B7, the binding result is recorded as “no binding (tested: 800 nM)”.

As to B8, the binding result is given as “no binding (tested: 800 nM)”.

Turning to B9, the binding result is reported as “no binding (tested: 800 nM)”.

Take B10: the binding result is “no binding (tested: 800 nM)”.

Turning to B11, the binding result is “no binding (tested: 800 nM)”.

As to B12, the binding result was “no binding (tested: 800 nM)”.

In the case of B13, the binding result is recorded as “no binding (tested: 800 nM)”.

In the case of B14, the binding result was “no binding (tested: 800 nM)”.

On to B15, for which the binding result is listed as “no binding (tested: 800 nM)”.

Take B16: the binding result is recorded as “no binding (tested: 800 nM)”.

As to B17, the binding result is recorded as “no binding (tested: 800 nM)”.

As to B18, the binding result was “no binding (tested: 800 nM)”.

For B19, the binding result is listed as “no binding (tested: 800 nM)”.

Take B20: the binding result was “no binding (tested: 800 nM)”.

Turning to B21, the binding result is on record as “no binding (tested: 800 nM)”.

As for B22, the binding result was “no binding (tested: 800 nM)”.

In the case of B23, the binding result is “no binding (tested: 800 nM)”.

As for B24, the binding result is on record as “no binding (tested: 800 nM)”.

Consider B25, for which the binding result is “no binding (tested: 800 nM)”.

Turning to B26, the binding result is reported as “no binding (tested: 800 nM)”.

As to B27, the binding result is reported as “no binding (tested: 800 nM)”.

Take B28: the binding result is recorded as “no binding (tested: 800 nM)”.

On to B29, for which the binding result is recorded as “no binding (tested: 800 nM)”.
